From patent US20220177587A1, “METHODS AND USES OF VARIANT CD80 FUSION PROTEINS AND RELATED CONSTRUCTS” (Alpine Immune Sciences, Inc., priority 2018, published 2022)
Changes are numbered by the printed parent chain. Numbers in names are those of the source.

B1: A12V/S15F/Y31H/M38L/T41G/M43L/D90N/T130A/P137L/N149D/N152T (protein)
chain: VIHVTKEVKEVVTLFCGHNVSVEELAQTRIHWQKEKKLVLGMLSGDMNIWPEYKNRTIFDITNNLSIVILALRPSDEGTYECVVLKYEKNAFKREHLAEVTLSVKADFPTPSISDFEIPTSNIRRIICSASGGFPELHLSWLENGEELDAITTTVSQDPETELYAVSSKLDFNMTTNHSFMCLIKYGHLRVNQTFNWNTTKQEHFPDN
B2: K36E/I67T/L70Q/A91G/I118V/T1205/T130A/N152T (protein)
chain: VIHVTKEVKEVATLSCGHNVSVEELAQTRIYWQKEEKMVLTMMSGDMNIWPEYKNRTIFDITNNLSTVIQALRPSDEGTYECVVLKYEKDGFKREHLAEVTLSVKADFPTPSISDFEVPSSNIRRIICSASGGFPEPHLSWLENGEELNAITTTVSQDPETELYAVSSKLDFNMTTNHSFMCLIKYGHLRVNQTFNWNTTKQEHFPDN
B3: V68A/T110A (protein)
chain: B2 chain with E36K, T67I, V68A, Q70L, G91A, T110A, V118I, S120T, A130T, T152N
modifications: CD80 v26 ECD
B4: L70Q/A91G/T110A/I118V/T120S/T130A (protein)
chain: B2 chain with E36K, T67I, T110A, T152N
modifications: CD80 v145 ECD
B5: I67T/L70Q/A91G/I118V/T120S (protein)
chain: B2 chain with E36K, A130T, T152N, N196H
modifications: CD80 v144 ECD
B6: I67F/L70R/E88G/A91G/I118V/T120S/T130A (protein)
chain: B2 chain with E36K, T67F, Q70R, E88G, T152N
modifications: CD80 v148 ECD
B7: E52G/L70Q/A91G/D107N/I118V/T1205/T130A/K169E (protein)
chain: B2 chain with E36K, E52G, T67I, D107N, T152N, K169E
B8: A91G (protein)
chain: B2 chain with E36K, T67I, Q70L, V118I, S120T, A130T, T152N
B9: E24G/L25P/L70Q/A91G/I118V/T120S/N152T (protein)
chain: B2 chain with E24G, L25P, E36K, T67I, A130T
modifications: CD80 v149 ECD
B10: K37E/F595/L70Q/A91G/T120S/T130A (protein)
chain: B2 chain with E36K, K37E, F59S, T67I, T152N, K185E
B11: A91G/L102S (protein)
chain: B2 chain with E36K, T67I, Q70L, L102S, V118I, S120T, A130T, T152N
B12: K54M/L70Q/A91G/Y164H (protein)
chain: B2 chain with E36K, K54M, T67I, V118I, S120T, A130T, T152N, Y164H, H188D
modifications: CD80 v138 ECD
B13: M38T/L70Q/E77G/A91G/I118V/T120S/T130A/N152T (protein)
chain: B2 chain with E36K, M38T, T67I, E77G
B14: K89E/T130A (protein)
chain: B2 chain with E36K, T67I, Q70L, K89E, G91A, V118I, S120T, T152N
modifications: CD80 v19 ECD
B15: A91G/S103P (protein)
chain: B2 chain with E36K, T67I, Q70L, S103P, V118I, S120T, A130T, T152N
B16: R29H/E52G/D90N/I118V/T120S/T130A (protein)
chain: B2 chain with R29H, E36K, E52G, T67I, Q70L, D90N, G91A, T152N
modifications: CD80 v142 ECD
B17: D60V/A91G/I118V/T120S/T130A/K169E (protein)
chain: B2 chain with E36K, D60V, T67I, Q70L, T152N, K169E
modifications: CD80 v137 ECD
B18: A91G/F92L/F108L/1118V/T120S (protein)
chain: B2 chain with E36K, T67I, Q70L, F92L, F108L, A130T, T152N
B19: R29H/E52G/L70R/E88G/A91G/T130A (protein)
chain: B2 chain with R29H, E36K, E52G, T67I, Q70R, E88G, V118I, S120T, T152N
modifications: CD80 v24 ECD
B20: V22A/L70Q/S121P (protein)
chain: B2 chain with V22A, E36K, T67I, G91A, V118I, S120T, S121P, A130T, T152N
modifications: CD80 v33 ECD
B21: Y31H/T41G/M43L/L70Q/A91G/I118V/T120S//I126V/T130A (protein)
chain: B2 chain with Y31H, E36K, T41G, M43L, T67I, I126V, T152N
B22: M38V/T41D/M43I/W50G/D76G/V83A/K89E/I118V/T120S/I126V/T130A (protein)
chain: VIHVTKEVKEVATLSCGHNVSVEELAQTRIYWQKEKKVVLDMISGDMNIGPEYKNRTIFDITNNLSIVILALRPSGEGTYECAVLKYEEDAFKREHLAEVTLSVKADFPTPSISDFEVPSSNIRRVICSASGGFPEPHLSWLENGEELNAINTTVSQDPETELYAVSSKLDFNMTTNHSFMCLIKYGHLRVNQTFNWNTTKQEHFPDN
B23: L65H/D90G/T110A/F116L (protein)
chain: VIHVTKEVKEVATLSCGHNVSVEELAQTRIYWQKEKKMVLTMMSGDMNIWPEYKNRTIFDITNNHSIVILALRPSDEGTYECVVLKYEKGAFKREHLAEVTLSVKADFPAPSISDLEIPTSNIRRIICSTSGGFPEPHLSWLENGEELNAINTTVSQDPETELYAVSSKLDFNMTTNHSFMCLIKYGHLRVNQTFNWNTTKQEHFPDN
modifications: CD80 v141 ECD
B24: R29D/Y31L/Q33H/K36G/M38I/T41A/M43R/M47T/E81V/L85R/K89N/A91T/F92P/K93V/R94L/I118T/N149S (protein)
chain: VIHVTKEVKEVATLSCGHNVSVEELAQTDILWHKEGKIVLAMRSGDTNIWPEYKNRTIFDITNNLSIVILALRPSDEGTYVCVVRKYENDTPVLEHLAEVTLSVKADFPTPSISDFETPTSNIRRIICSTSGGFPEPHLSWLENGEELSAINTTVSQDPETELYAVSSKLDFNMTTNHSFMCLIKYGHLRVNQTFNWNTTKQEHFPDN
B25: R29D/Y31L/Q33H/K36G/M38I/T41A/M43R/M47T/E81V/L85R/K89N/A91T/F92P/K93V/R94L/N144S/N149S (protein)
chain: B24 chain with T118I, N144S
B26: R29D/Y31L/Q33H/K36G/M38I/T41A/M42T/M43R/M47T/E81V/L85R/K89N/A91T/F92P/K93V/R94L/L148S/N149S (protein)
chain: B24 chain with M42T, T118I, L148S

Test system: human pan T cells
Experiment: Anti-CD3 coimmobilization assay, IFN-gamma
Format: cell-based
Conditions: Table E32; variant ECD-Fc coimmobilized with anti-CD3; culture supernatant
How it was run: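 Plates coated overnight with 1 nM or 4 nM OKT3 anti-CD3 plus 1–80 nM rCD80.Fc variants, then washed. Purified human pan T cells or BC3 T cell clone (100,000/well) cultured 3 days in Ex-Vivo 15; supernatant IFN-gamma measured by ELISA.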

Molecule | Coimmobilization with anti CD3 IFN-gamma [pg/mL]
B1 | 104
B2 | 53
B3 | 163
B4 | 77
B5 | 1751
B6 | 62
B7 | 94
B8 | 220
B9 | 101
B10 | 109
B11 | 75
B12 | 152
B13 | 119
B14 | 204
B15 | 124
B16 | 124
B17 | 120
B18 | 59
B19 | 200
B20 | 105
B21 | 288
B22 | 82
B23 | 129

Same assay, conditions: Table E33; culture supernatant, 3 days

Molecule | Coimmobilization with anti-CD3 IFN-gamma [pg/mL]
B24 | 387
B25 | 400
B26 | 464

Test system: allogeneic CD4+ T cells
Experiment: Mixed Lymphocyte Reaction (MLR), IFN-gamma
Format: cell-based, human
Conditions: Table E32; variant ECD-Fc in MLR assay; culture supernatant
Procedure: Soluble rCD80.Fc bioactivity was tested in a human Mixed Lymphocyte Reaction (MLR). Human primary dendritic cells (DC) were generated by culturing monocytes isolated from PBMC (BenTech Bio, USA) in vitro for 7 days with 500U/ml rIL-4 (R&D Systems, USA) and 250 U/ml rGM-CSF (R&D Systems, USA) in Ex-Vivo 15 media (Lonza, Switzerland). 10,000 matured DC and 100,000 purified allogeneic CD4+ T cells (BenTech Bio, USA) were co-cultured with variant CD80 Fc fusion proteins and controls in 96 well round bottom plates in 200 μl final volume of Ex-Vivo 15 media. On day 5, IFN-gamma secretion in culture supernatants was analyzed using the Human IFN-gamma Duoset ELISA kit (R&D Systems, USA). Optical density was measured by VMax ELISA Microplate Reader (Molecular Devices, USA) and quantitated against titrated rIFN-gamma standard included in the IFN-gamma Duo-set kit (R&D Systems, USA).

Molecule | MLR IFN-gamma levels [pg/mL]
B1 | 711
B2 | 852
B3 | 861
B4 | 656
B5 | 794
B6 | 1003
B7 | 874
B8 | 877
B9 | 969
B10 | 863
B11 | 698
B12 | 685
B13 | 796
B14 | 761
B15 | 670
B16 | 800
B17 | 744
B18 | 665
B19 | 740
B20 | 976
B21 | 782
B22 | 671
B23 | 758

Same assay, conditions: Table E33; culture supernatant

Molecule | MLR IFN-gamma levels [pg/mL]
B24 | 5028
B25 | 7943
B26 | 17387
